From the nanobody polyreactivity screen of Harvey et al. (2022) come the findings set out here.

The data set can be described thus: yeast display, Sf9 membrane polyspecificity reagent, FACS + sequencing; frameworks hold sequencing errors. In outline: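 Nanobodies came from a synthetic yeast display library in Saccharomyces cerevisiae BJ5465, induced with galactose for 36–48 hours and stained for 1 hour at 4 °C with 10% biotinylated, detergent-solubilized Sf9 membrane reagent. Cells were enriched on streptavidin microbeads and then FACS-sorted, with low and high (top ~1%) gates set on anti-HA fluorescence for expression and streptavidin fluorescence for reagent binding. Each polyreactivity label reflects the gate a clone came from. Genes were amplified by colony PCR, sequenced by MiSeq 2 × 250 and filtered by CDR length.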
As to “QVQLVESGGRKVQAGGSLRLSCAASGSTIWPYAMGCYRQAPAKERELVAAISNGGGTKYADSVKGRFTISRDNAKNTVYLQMNSLKPEHTAVYYCAKTLWTGRAWYDYWGQGTQVTVSS”, the “polyreactivity (PSR sort gate)” value is “high polyreactivity”. For “QVQLVESGGRLLQEGGSLRLSCAASGLIVTYYTMGWYRPAPGKERELVASIDSGGSTNYADSVQGRFTISRDNAKNTVYLQLNCLKPEDTAVEFCAADYDGWFYEMGYWGQGTQVTVSS” the value was “low polyreactivity”; for “QVQLVESGGRLVEAGGSLRISWAASGLIFGYNAMGWYRQAPGKERELVAAISGSGGRTYYADSVKGRFTISRDNAKNTVYLQMNSLKPEDTAVFYCAVADRRGLGYWGQGTQVTVSS”, “high polyreactivity”. For “QVQLVESGGRLVEAGGSLRLSCAASGSTISGNAMGWYRQAPGKERELVAEITSDDSTNYADSVKGRFTISRDNAKNSVYLQMNSLKPEDTAVYYCAADVTYPYYQDHSVDYFIGYAYWRQGTQVTVSS” the value was “low polyreactivity”; for “QVQLVESGGRLVQAGGILRLSCAASGRSFYFYAMGWYRKAPGKERELVAAITRGDDTNYADSVKGRFTISRDNAKNTVNLQMNSLKPEDTAVYYFGYATEYDYWGQGTQVTVSS”, “low polyreactivity”. Turning to “QVQLVESGGRLVQAGGILRLSCAASGSTFSPYAKGRNRQAPGKERELVAGITSSGGDTYYADSVKGRFTISRDNAKNTVYLLMNSLKPEDTAVYYCAADWWVLGQLWFDYWGHGTQVTVSS”, the “polyreactivity (PSR sort gate)” value is recorded as “low polyreactivity”. The value for “QVQLVESGGRLVQAGGILRLSCAASGSTSHYYAMGWSRQAPGKERELVASITCSGGSTYYADSVKGRFTISRDNAKNTVYLQMNSLKPEATAVYYCNAQERRVRDYDYWGQGTQVTVSS” was “low polyreactivity”. “QVQLVESGGRLVQAGGRHRLSGAASRNIFDRYALGWNLQAPGKESDLVAGITWSGGSTYYADSVKGRFTISRDNAKNTVYLHMNSLKPEDTAVYYCGQANYYWGQGTQVTVSS”: the “polyreactivity (PSR sort gate)” value is on record as “low polyreactivity”. The value for “QVQLVESGGRLVQAGGSLLLSCAASGFTFDDYAMGRYRQAPGTERELVASITTSGASKYYADSVKGRFTISRDNAKNPVYLQMNSLKPEDTAVYYCAVDNDSYTSPRAGDDYWGQGTQVTVSS” was “low polyreactivity”; that for “QVQLVESGGRLVQAGGSLRLICAASGLTIRSYAMGWYRQAPGKERELVAAISDSGDSTYYADSVKGRFTISRDNAKNTVYFQMNSLKPEDTAVYYCAVEYSYEYEFWGQGTQVTVSS” was “low polyreactivity”.

As to “QVQLVESGGRLVQAGGSLRLISAASGFTFRAYAMGWYRQAPGKERELVAAINISGGSTYYADSVKGRFTISRDNAKKTVYLKMNSLKPEDTAVYYCAADWPEDWYTEYGYWGQGTQVTVSS”, the “polyreactivity (PSR sort gate)” value was “low polyreactivity”.

Regarding “QVQLVESGGRLVQAGGSLRLLCAASGSTFRYYAMGWYRPAPGKERELLAAISRSGGRTYYADSVKGRFTMSRDNAKTTVYLQMKSLKPEDTAVYDCATRGDGSSWGDYDYWGQGTQVTVSS”, the “polyreactivity (PSR sort gate)” value is listed as “high polyreactivity”.

For “QVQLVESGGRLVQAGGSLRLRCAASGSTFMSNAMGWYRPAPGKERELVAAITGSGGNTYYADSVKGRFTISRDNAKNTVYLQMNSLKPEDTAVYYCAAVAPRSNYWRGYYYWGQGTQVTVSS”, the “polyreactivity (PSR sort gate)” value is “high polyreactivity”. As to “QVQLVESGGRLVQAGGSLRLSCAASGFIFDDYDIGWYTQAPGKERELVDAISWSGGSTYYEDSLKGRFTISRDNAKNTVYLQMNSLKPEDTAVYYCNADYYRSRYDYWGQGTQVTVSS”, the “polyreactivity (PSR sort gate)” value is given as “high polyreactivity”. Consider “QVQLVESGGRLVQAGGSLRLSCAASGFIFKYYAMGWYRQAPGKEREFVAAITWSGSSTNYADSVKGRFTISRDNAKNTVYLQMNSLKPEDTAVYYCNADRKYYKYDYWGQGTQVTVSS”, for which the “polyreactivity (PSR sort gate)” value was “high polyreactivity”.

As to “QVQLVESGGRLVQAGGSLRLSCAASGFIFYQYAMGWYRQAPGKERELVAVISRTGSTSYADSVKGRFTISRDNAKNSVYLQLNSLKAEDTAGYYCAKKRALRYYGYDYWGQGTQVTVSS”, the “polyreactivity (PSR sort gate)” value is on record as “high polyreactivity”.

In the case of “QVQLVESGGRLVQAGGSLRLSCAASGFTFGAYAMGWYRQAPGKERELVATIRYSGDSTYYADSVKGRFTISRDNAKNTVYLQMNSLKPEDTAVYYCAADVYGGIGYDYWGQGTQVTVSS”, the “polyreactivity (PSR sort gate)” value was “low polyreactivity”.

For the sequence “QVQLVESGGRLVQAGGSLRLSCAASGFTFNRYAMGGYRHAPGKERELVARITRGGSTKYADSVKGRFTISRDNAKNTVYLQMNSLKPEDTAVYYCAADYGGFLGYDYWGQGTQVTVSS”, the “polyreactivity (PSR sort gate)” value is “high polyreactivity”.

In the case of “QVQLVESGGRLVQAGGSLRLSCAASGFTFPWYTMGWYRQPPGKEREFVAAITVSGGSTYYADSVKGRFTISRDNAKNSVYLQMNSLKPEDTAVYYCARDGRVVYDSRYDYWGQGTQVTVSS”, the “polyreactivity (PSR sort gate)” value is “low polyreactivity”. The value for “QVQLVESGGRLVQAGGSLRLSCAASGINFGYYAMGLYRQAPGKEMELVAAINKSGTSTYYADSVKGRFTISRDNAKNTVYLQMNSLKPEDTAVYYCAVDYARDKGYPYGYWGQGTQVTVSS” was “low polyreactivity”; that for “QVQLVESGGRLVQAGGSLRLSCAASGIPFEYYAMGWYRQAPGKERELVAAIDTGGSTNYADSVKGRFTISRDNAKNTVYLQMNSLKPEDTAVYYCAADWSWWDGEDYHFEYDYWGQGTQVTVSS” was “low polyreactivity”; that for “QVQLVESGGRLVQAGGSLRLSCAASGLIYSRYAMGGYRQAPGKEREFVATISWSGGSRYYADSVKGRFTISRDNAKNTVYLQMNSLKPEDTAVYYCATKKWYYPGDSKYYYWGQGTQVTVSS” was “high polyreactivity”.

Turning to “QVQLVESGGRLVQAGGSLRLSCAASGLTFGRYAMGWYSQAPGKERELVASISQRGGSSYYADSVKGRFTISRDNAKNTVFLQMNSLKPEDTAVYYCNARVRDIYRYSMDSWGQGTQVTVSS”, the “polyreactivity (PSR sort gate)” value is “low polyreactivity”.

In the case of “QVQLVESGGRLVQAGGSLRLSCAASGLTFSGYAMGWYRQAPGKERELVAAISGGGGSTYYADSVKGRFTISRDNAKNTVYLQMNSLKPEDTAVYYCAARPRWYTYTRQEYDYWGQGTQVTVSS”, the “polyreactivity (PSR sort gate)” value is reported as “high polyreactivity”. The value for “QVQLVESGGRLVQAGGSLRLSCAASGRIFASNAMGWYRQAPGKERELVAAITTTGGSTYYADSVKGRFTISRDNAKNTVYLQMNSLKPEDTAVYYCAARAIPRVRRYGSMNYWGQGTQVTVSS” was “high polyreactivity”; that for “QVQLVESGGRLVQAGGSLRLSCAASGRIFGYYAMGWYRQAPGKERELVAAINYSGGSTYYADSVKGRFTISRDNAKNTVYLQMNSLKPEDTAVYYCNAVRYTLLYYWGQGTQVTVSS” was “high polyreactivity”; that for “QVQLVESGGRLVQAGGSLRLSCAASGRIFNNYAMGWYRQAPGKERELVAAISGGGSTNYADSVKGRFTISRDNAKNTVYLQMNSLKPEDTAVYYCASGYLKASRDLYETVPYDYWGQGTQVTVSS” was “low polyreactivity”. The value for “QVQLVESGGRLVQAGGSLRLSCAASGRIFRDNAMGWYRQAPGKEMELVATIRSGTNTNYADSVKGRFTISRDYAKNTVYLQMNSLKPEDTAVYYCAADLWGSHYTEYRRYPYEYDYWGQGTQVTLSS” was “low polyreactivity”; that for “QVQLVESGGRLVQAGGSLRLSCAASGRIFRYNAMGWYIQAPGKEREFVAAIRGSSSRTYYADSVKGRFTISRDNAKNTVYLQMNSLKPEDTAVYYCNAYVYYSHEDDYWGQGTQVTVSS” was “high polyreactivity”. The value for “QVQLVESGGRLVQAGGSLRLSCAASGRIFRYNAMGWYRQAPGKEREFVARISVITGRTYYADSVKGRFTISRDIAKNTVYLQMNSLKPEDTAVYYCAADAGYNYRYLLRGDYWGQGTQVTVSS” was “high polyreactivity”; that for “QVQLVESGGRLVQAGGSLRLSCAASGRIFSRYAMGWYRPAPGKERELVATITWSGGSTYYADSVKGRFTISRDNAKNTVYLQMNSLKPEDTAVYYCNADVTYLYKMDYWGQGTQVTVSS” was “low polyreactivity”; that for “QVQLVESGGRLVQAGGSLRLSCAASGRILRYYALGWYRQAPGKERELVASISRGGSTYYADSVKGRFTISRDNAKNTVYLQMNSLKPEDTAVYDCATEVRRSTREFGYWGQGTQVTVSS” was “high polyreactivity”.

Take “QVQLVESGGRLVQAGGSLRLSCAASGRTFGKYVMGWYRQAPGKERELVAAISRSGGGTYYADSVKGRFTISRDNAKNTVYLQMNSLKPEDTAVYYCAKGSRSNIFQDSYNYWGQGSQVTVSS”: the “polyreactivity (PSR sort gate)” value is given as “high polyreactivity”. The value for “QVQLVESGGRLVQAGGSLRLSCAASGRTFGYNTMGWYRPAPGKEREVVARITWSGASTYYADSVKGRFTISRDNAKNTVYLQMNSLKPEDTAVYYCNTADTVSWRSPYDYWGQGTQVTVSS” was “high polyreactivity”; that for “QVQLVESGGRLVQAGGSLRLSCAASGRTFHRYAMGWYRQAPGKERELVAAITSSGGSTNYADSVKGRFTISRDNAKNTVYLQMNSLKPEDTAVYYCATVRYRYTSHPWSRGFDYWGQGTQVTVSS” was “low polyreactivity”. For “QVQLVESGGRLVQAGGSLRLSCAASGRTFPYNAMGWSRQAPRKERELVAAITWSGGSTYYADSVKGRFTISRDNAKNTVYLQMNSLKPEDTAVYYCAADEIYGYDYWGQGTQVTVSS” the value was “high polyreactivity”; for “QVQLVESGGRLVQAGGSLRLSCAASGRTIGLNGMGWYRQAPGTERELVAGISWSGGSTNYADSVKGRFTISRDNAKNTVYLQMNSLKPEDTAVYYCAADFVYYVVNDFGWSYAYEYWGQGTQVTVSS”, “low polyreactivity”.

As for “QVQLVESGGRLVQAGGSLRLSCAASGSIFKYYVMGWYRQAPGKERELVAAISSGGGSTYYADSVKGRFTISRDNAKNSVYLQMNSLKPEDTAVYYCNKKYRSRWQGPFDYWGQATQVTVSS”, the “polyreactivity (PSR sort gate)” value is recorded as “high polyreactivity”. For “QVQLVESGGRLVQAGGSLRLSCAASGSIFSYYAMGWYRQATGKERELVASISSAGSTNYADSVKGRFTISRDNAKNTVYLQMNSLKPEDTAVYYCNTDDDSSSTGYYSWGQGTQVTVSS” the value was “low polyreactivity”. Take “QVQLVESGGRLVQAGGSLRLSCAASGSIFYGYTMGWYRQAPGKERELVATISGRGGSTYYADSVKGRFTISRDNAKTTVYLQMNSLKPEDTAVYYCNSGKYYYNYGFWGQGTQVTVSS”: the “polyreactivity (PSR sort gate)” value is “high polyreactivity”. Regarding “QVQLVESGGRLVQAGGSLRLSCAASGSTFARNAMGWYRQAPGKERELVAAISSSGGRTYYADSVKGRFTISRDNAKNTVYLQMNSLKPEDTAVYYCAAAFSLGMYWGQGTQVTVSS”, the “polyreactivity (PSR sort gate)” value is recorded as “high polyreactivity”.
